Series [1] concerns p55-R-induced cytotoxicity in 293-EBNA cells. As to the kind of experiment: Death of 293-EBNA cells induced by over-expression of p55-R. Type of series: cell-based, human. Conditions: co-transfection. As for the experimental part: In brief, 293-EBNA cells, MCF7 human breast carcinoma cells and HeLa HtTA-1 cells were grown in Dulbecco's modified Eagle's minimal essential medium supplemented with 10% fetal calf serum, nonessential amino acids, 100 U/ml penicillin and 100 μg/ml streptomycin. Cell tissue culture dishes (5×10^5 293-EBNA cells, 3×10^5 s MCF7 cells or 3×10^5 HeLa cells in 6-cm dishes) were transiently transfected, using the calcium phosphate precipitation method, with the cDNAs of the indicated proteins together with the β-galactosidase expression vector. In the experiments presented in FIGS. 14A-D and 15, each dish was transfected with 3.5 μg of the indicated MACH construct and 1.5 μg of pSV-β-gal. In the experiments presented in FIGS. 16A-D and 17-19, each dish was transfected with 2.5 μg of the indicated MACH or MORT1 construct (or, as control, empty vector) and 1.5 μg of pSV-β-gal. The cells were rinsed 6 to 10 h after transfection. The 293-EBNA and MCF7 cells were incubated for a further 18 h without additional treatment. […] The extent of cell death at the end of the incubation periods was assessed by determination of β-galactosidase expression, as described by Kumar et al, 1994. […]
In particular, FIGS. 16A-D show morphology of 293-EBNA cells in which cell death was induced by transient expression of a chimera comprised of the extracellular domain of the p55-R (amino acids 1-168) fused to the transmembrane and intracellular domains of Fas/APO1 (amino acids 153-319) (p55-Fas chimera) (FIGS. 16A and 16B), or by expression of the p55-R (FIGS. 16C and 16D), and of cells that were protected from these cytotoxic effects by their simultaneous transfection with MACHα1 (C360S) (FIGS. 16B and 16D). […] FIG. 17 illustrates the quantification of death induced in 293-EBNA cells by their transfection with p55-Fas chimera or with p55-R, together with an empty vector, a MORT1 deletion mutant lacking the MACH-binding region (MORT1 (92-208)), or MACHα molecules containing a nonfunctional CED3/ICE region. […] Data are from at least two independent experiments and are expressed as in FIGS. 14A-F and 15.

A further series concerns the target T1, p75 TNF receptor (Homo sapiens, UniProt P20333).
T1 construct: human p75 TNF receptor (p75-IC, residues 287-461); expressed in transfected cells; host or cells: SFY526 yeast
T1 sequence (P20333 287-461): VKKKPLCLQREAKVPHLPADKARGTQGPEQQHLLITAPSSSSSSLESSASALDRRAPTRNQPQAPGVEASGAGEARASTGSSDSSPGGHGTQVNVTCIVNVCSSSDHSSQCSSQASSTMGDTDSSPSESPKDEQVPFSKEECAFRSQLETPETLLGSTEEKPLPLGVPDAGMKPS
The series can be described thus: Two-hybrid test of MORT-1 binding (FIG. 1), p75 TNF receptor. Conditions: p75-IC residues 287-461, FIG. 1. The text has this: To isolate proteins interacting with the intracellular domain of the FAS-R, the yeast two-hybrid system was used (Fields and Song, 1989). […] In this system, the genes for the candidate interacting proteins are cloned into separate expression vectors. In one expression vector, the sequence of the one candidate protein is cloned in phase with the sequence of the GAL4 DNA-binding domain to generate a hybrid protein with the GAL4 DNA-binding-domain, and in the other vector, the sequence of the second candidate protein is cloned in phase with the sequence of the GAL4 activation domain to generate a hybrid protein with the GAL4-activation domain. The two hybrid vectors are then co-transformed into a yeast host strain having a lacZ or HIS3 reporter gene under the control of upstream GAL4 binding sites. Only those transformed host cells (cotransformants) in which the two hybrid proteins are expressed and are capable of interacting with each other, will be capable of expressing the reporter gene. In the case of the lacZ reporter gene, host cells expressing this gene will become blue in color when X-gal is added to the cultures. […]
In FIG. 1, there is depicted the interaction of the proteins encoded by the Gal4 DNA binding domain and activation-domain constructs (pGBT9 and pGAD-GH) within transfected SFY526 yeasts as assessed by β-galactosidase expression filter assay. […]

B1: MACHα1 (C360S): MACHα1 mutant in which the catalytic cysteine Cys360 is replaced by Ser (protein)
chain: MDFSRNLYDIGEQLDSEDLASLKFLSLDYIPQRKQEPIKDALMLFQRLQEKRMLEESNLSFLKELLFRINRLDLLITYLNTRKEEMERELQTPGRAQISAYRVMLYQISEEVSRSELRSFKFLLQEEISKCKLDDDMNLLDIFIEMEKRVILGEGKLDILKRVCAQINKSLLKIINDYEEFSKERSSSLEGSPDEFSNGEELCGVMTISDSPREQDSESQTLDKVYQMKSKPRGYCLIINNHNFAKAREKVPKLHSIRDRNGTHLDAGALTTTFEELHFEIKPHDDCTVEQIYEILKIYQLMDHSNMDCFICCILSHGDKGIIYGTDGQEAPIYELTSQFTGLKCPSLAGKPKVFFIQASQGDNYQKGIPVETDSEEQPYLEMDLSSPQTRYIPDEADFLLGMATVNNCVSYRNPAEGTWYIQSLCQSLRERCPRGDDILTILTEVNYEVSNKDDKKNMGKQMPQPTFTLRKKLVFPSD
In the case of B1, the “protection against p55-R-induced cytotoxicity” value in series [1] is on record as “protected”.

B2: MORT-1: Mediator of Receptor-induced Toxicity; protein binding the intracellular domain of FAS-R, SEQ ID NO:2 (protein)
chain: VNQAPECRFGGGILGPLGKRRDLARASEPRTEGARRAGPQPRPLADPAMDPFLVLLHSVSSSLSSSELTELKFLCLGRVVKRKLERVQSGLDLFSMLLEQNDLEPGHTELLRELLASLRRHDLLRRVDDFEAGAAAGAAPGEEDLCAAFNVICDNVGKDWRRLARQLKVSDTKIDSIEDRYPRNLTERVRESLRIWKNTEKENATVAHLVGALRSCQMNLVADLVQEVQQARDLQNRSGAMSPMSWNSDASTSEAS
For B2, the “binding to p75 TNF receptor in two-hybrid test” value with p75 TNF receptor is listed as “not”.

The record behind these values is patent US7799901B2, “Modulators of the function of FAS receptors and other proteins” (Yeda Research and Development Co. Ltd., priority 1995, dated 2010).
